We go through 1 substance from paper PMC9278117.

The target in one assay is 4A8 monoclonal antibody. Description: BLI. (BLI is a label-free optical method that tracks binding on a fibre tip over time.)
Another assay deals with CB6 monoclonal antibody. Description: BLI.

In the case of “SARS-CoV-2 S1-SpyTag monomer (from UniProt P0DTC2 16-685) (domain or fragment)”, the Kd (as a rule, the concentration at which binding is half-saturated) with 4A8 monoclonal antibody is 34.1 nM; with CB6 monoclonal antibody it was 5.48 nM.
